From article PMC3470550

Target: Cdk2/cyclin A complex (Cdk2 phosphorylated at threonine 160 with truncated cyclin A) (human) (UniProt P24941)

Q: “peptide corresponding to the Cdk binding domain of p27” was tested. Which IC50 of inhibition of Cdk2/cyclin A kinase activity (data not shown; 25% residual kinase activity even at peptide concentrations as high as 17 µM) did it give?
A: 0.125 µM
